Laboratory results as given in publication PMC8262862, “A Prevalent Focused Human Antibody Response to the Influenza Virus Hemagglutinin Head Interface” (mBio, 2021).

Target: T1, HA head domain of A/Texas/50/2012(H3N2), monomeric (Influenza A virus A/Texas/50/2012(H3N2), strain)
T1 construct: also called monomeric HA heads
Assay: BLI
Details: both partners purified

B1: D2 H1-1/H3-1 Fab, His-tagged (binding studies) (Fab, V domains shown)
VH: QVQLVQSGGGLVRPGGSLRLSCAASGFTFSSAWMTWVRQAPGKGLEWVANIKEDGSEKYYVDSVKGRFSISRDNAKNSLYLQISSLRAEDTAVYYCARRFVERLWGQSKPYDAVDIWGQGTMVTVSG
VL: DIQMTQSPSSLSASVGDRVTITCRASQSISNYLNWYQQKPGKAPKLLIYVASNLQSGVPSRFSGSGSGTDFALTISSLQPEDFASYYCQQSYSPVTTFGGGTKVEIK
notes: not shown: His6, C-terminal, kept
Question: Does B1 bind?
Answer: Result: binds

B2: H2214 Fab, His tag removed (competitor in BLI) (Fab, V domains shown)
VH: EVQLLESGGGLVQPGGSLRLSCAASGFTFNHYAMTWVRQAPGKGLEWVASSSGSGRSTYYTDSVKGRFSVSRDNSKNTLYLQMNSLRAEDTAVYYCAKSSNYYGSGSYSPDDYYHMDVWGQGTTVTVSG
VL: EIVMTQSPDTLSVSPGERATLSCRASESISSNLAWYQQKPGQVPRLLIYGASTRATGVPARFTGSGSGTEFTLTISSLQSEDFAVYYCQQYNNRLPYTFGQGTKLEIK
Question: Does B2 bind?
Answer: Result: binds

B3: D1 H1-17/H3-14 Fab, His-tagged (binding studies) (Fab, V domains shown)
VH: QVQLQESGPGLVKPSESLSLTCSVSGGSVSSNLHYWSWIRQLPGKGLEWIGYISYTGSTKYNPSLNGRVTLSIDASKNQFSLELSSVTAADTAVYYCARDFFEKLIADDLNAFDIWGQGTMVTVSG
VL: DIRVTQSPSSLSASVGDRVTITCRASQSISRSLNWYQQRPGKAPKFLIYAASNLQSGVPSRFSGGGSGTDFTLTISSLQPEDFATYYCQETYSRTFGQGTKADIK
notes: as for B1
Question: Does B3 bind?
Answer: Result: binds
